{"source": "patent US20110039257A1", "target": "Akt1/PKB alpha recombinant enzyme (Upstate Biotechnology)", "sequence (P31749 whole entry, the tested form may be a part)": "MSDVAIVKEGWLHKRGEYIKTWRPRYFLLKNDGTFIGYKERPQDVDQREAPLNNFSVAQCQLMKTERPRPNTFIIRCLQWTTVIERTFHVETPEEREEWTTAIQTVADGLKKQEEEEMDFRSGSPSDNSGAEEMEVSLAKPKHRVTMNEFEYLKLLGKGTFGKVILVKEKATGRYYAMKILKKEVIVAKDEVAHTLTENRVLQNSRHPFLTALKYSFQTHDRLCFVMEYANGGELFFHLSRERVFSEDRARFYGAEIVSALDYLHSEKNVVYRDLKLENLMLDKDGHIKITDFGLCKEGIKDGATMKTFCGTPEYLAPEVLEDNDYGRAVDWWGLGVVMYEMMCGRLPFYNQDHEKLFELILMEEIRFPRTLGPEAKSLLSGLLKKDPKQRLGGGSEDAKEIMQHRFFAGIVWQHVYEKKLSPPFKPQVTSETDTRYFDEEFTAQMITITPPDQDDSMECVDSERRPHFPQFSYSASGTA", "test": "cell-based or functional assay", "data": [{"binder": "CPM firefly luciferase serine/threonine kinase biosensor, construct pBFB340: Met-(Luc2.0 A-544)-(linker X)-…-(…)-(Rad53p FHA2 domain)-(linker Y)-(Luc2.0 4-B) (protein, part only; not given: luciferase fragments and linkers, part only) chain, part: RKRDRLGTLGIGGSSGGGSGGGGSGGGNGRFLTLKPLPDSIIQESLEIQQGVNPFFIGRSEDCNCKIEDNRLSRVHCFIFKKRHAVGKSMYESPAQGLDDIWYCHTGTNVSYLNNNRMIQGTKFLLQDGDEIKIIWDKNNKFVIGFKVEINDTTGLFNEGLGMLQEQRVVLKQTAEEKDLVKKL", "values": [{"measurement": "decrease in luminescence (luciferase activity) with versus without Akt1/PKB", "value": 50, "unit": "%"}]}]}
